This series is described as follows: soluble on expression in E. coli; label from the status in PepcDB or PDB records.
As to “MLFSMESILSSTKPKLEPPPKLEPEVTINEQVVDLPRSNTRLSEPSTSASVLEHDLKFGESRKRSRSLGDEPTEDEDGVPVRKANKRNHSTSSAADSSSDDAKDDDDDDDSTSRKSMSGHRKSSHAKPPYSYIALIAMSILNSPEKKLTLSEICEFIINKFEYYKEKFPAWQNSIRHNLSLNDCFVKVARGPGNPGKGNYWALDPNCEDMFDNGSFLRRRKRYKKNSDTYHEMMSHHPMPFPPFLPQGMPFPPRMMHPMANIPMLGHPMNPRAVPNMPAFFIPQNIDSQKLLSMMASRIMPMDAPVSSGQKRTSSSSSPNENGSSAVSDKLSA”, the “soluble on expression in E. coli” value is listed as “soluble”.

As to “MSETPLLFQTRDYRGATIEDLNIPLAVSINPTTSIYEAIGIAFENEFTYLPVIHERTKRLLGVINIEELKSNGDKLKRSILAPIVKSYMIWFNQSAKRKYEQENKEVLSSNRTAPKTTILKPRGKRYEVLTPMTPLEKLAEFFNSGNYFAIVTNGHGDFVYGVVTPQDLMKYEQSRPKL”, the “soluble on expression in E. coli” value is given as “soluble”.

In the case of “MEFIVCNGCGCSPSKRQFFITACSHVFCETCRTTPTADFCHLCKIPTKTLKMDASLPKNVKKMFGDVGVMSTDIHKRLARVIGFQKIQKSIQLKMENKKSVMRKEQTKKVEKKTEEMHCQLSKLTSFEENNRKKLEDIERENEKLRNLISALELKVASSRDIDDDEFFMQGTPTSSNPSVAGSDVDNDELLDYDLLGLRNRSDSSSSNCSSQSNRGGSLF”, the “soluble on expression in E. coli” value is listed as “not soluble”.

In the case of “MSCTRRQFITRVGALAAVSGMAGRVVANTLNINGVRYGMVHDESLCIGCTACMDACREVNTVPEGVSRLTIIRSEPQGTFPDVKYRFFRHSCQHCDHAPCVDVCPTGASFRDAASGIVDVNPDLCVGCQYCIAACPYRVRFIHPVSKTADKCDFCRKTNLKAGKQPACVESCPTKALTFGNLDDPNSDISRLLRQKTTYRYKLALGTKPKVYRVPFNYGEVSQ”, the “soluble on expression in E. coli” value is on record as “not soluble”.

As to “MGSDKIHHHHHHMSCKAFQGQTLREHIEAMLAAWEIVKNKYIPSIIRVMKTVGVKFTEEDADKFMKTLIILHDVGKCSEVYQKHLSNNEPLRGFRHELVSAYYAYNILKDMFKDETIAFIGALVVMMHHEPILMGQIRSLDKEELTPEVVLDKLRTFNGVMEGTESFIKSMIKEKLGVIPKVPSPTQEDVLREVIRLSVLARHRPDSGKLRMVVGALLIPLVLCDYKGAKEREGESPKFAEVLRVEMMK”, the “soluble on expression in E. coli” value was “not soluble”.

Consider “GSVLEPLKVVWAKCSGYPSYPALIIDPKMPRVPGHHNGVTIPAPPLDVLKIGEHMQTKSDEKLFLVLFFDNKRSWQWLPKSKMVPLGIDETIDKLKMMEGRNSSIRKAVRIAFDRAMNHLSRVHGE”, for which the “soluble on expression in E. coli” value is reported as “soluble”.

For “MGSDKIHHHHHHMNHIGTREIATERLTLRRFEIEDAENMFYNWANDPEVTKYLTWPAHESVDTTETILKEWISKYDEKDFYQWAIELNDLEQPIGTISAIKTDERVESVEIGYCIGKRFWNNGYMTEALTAIIRFFINEVGAGRIWARHDTENPNSGKVMVAAGMDYEGTLRHAGFNNQGICDEAVYAKVRSAALDEEPEEETPEQQAVTTKVMGEDGVMRNVISDETMEYVGILAKLELSPEEAEAAKKDMADMLDYIDKLEELDTSGIEPMSHVFPVNNVFRDDVVTNGDGSEATLANAPVKKDGGFKVPKTIGE”, the “soluble on expression in E. coli” value is reported as “not soluble”.

With “SYPYLMLSGHQYPQMAYYRGTLKKPNQYFGPYPNSNAVRDSIQVLQKVFMLRTCEDSVFEHRDRPCLLYQIKRCTAPCVGHISEEDYRDSVREAATFLNGKTDELTRTLQHKMQTAAANLQFEEAARYRDQIQALGIMQSNQFIDSKNPNNPNDIDLLALAVSDGLVCVHWVSIRGGRHVGDKSFFPDTKNDPEPNGQDYAEAFVAQHYLGKSKPDIIISNFPVPDALKEALEGEHGKQMQFVTKTIGERKVRLKMAEQNAQMAIAQRRLQQSSQQHRIDELAKILGMDSDGLNRLECFDISHTQGEATIASCVVYDEQNIQPSQYRRYNITTAKPGDDYAAMREVLTRRYGKMQEAEANGETVKWPDAVLIDGGKGQIGVAVSVWEELGLHIPLVGIAKGPERKAGMEELILPFTGEVFRLPPNSPALHLLQTVRDESHRFAITGHRKKRDK”, the “soluble on expression in E. coli” value is given as “not soluble”.

In the case of “MSSTMKDTQEAPVRWSRNWTPDAIRALVDQDNGKLDARIYADQDLYQLELERVFGRSWLMLGHETHIPKIGDYLTTYMGEDPVIMVRQKDQSIKVFLNQCRHRGMRIVRSDGGNAKAFTCTYHGWAYDIAGNLVNVPFEKEAFCDKKEGDCGFDKADWGPLQARVETYKGLVFANWDPEAPDLKTYLSDAMPYMDVMLDRTEAGTEAIGGIQKWVIPCNWKFAAEQFCSDMYHAGTMSHLSGVLAGLPPEMDLTQIQLSKNGNQFRSAWGGHGAGWFINDSSILLSVVGPKITQYWTQGPAAEKAARRVPQLPILDMFGQHMTVFPTCSFLPGINTIRTWHPRGPNEVEVWAFVLVDADAPEDIKEEFRLQNIRTFNAGGVFEQDDGENWVEIQRVMRGHKAKSTSLCAKMGLNVPNKNNPAYPGKTAYVYAEEAARGMYHHWSRMMSEPSWDTLKP”, the “soluble on expression in E. coli” value is “soluble”.

For “DGMTKLTFGGHPFLLGFEQLERLVERTAKTASEGYPPFNIEAVAENAYRITLAVAGFREDDIAITVEDRQLVVRGRQAEDPAERVFLHRGIASRAFQRSFVLADGVEVAGATMEHGLLHIDLHRQVPQAVVQTIPIGRNR”, the “soluble on expression in E. coli” value was “not soluble”.

“MIKLSNITKVFHQGTRTIQALNNVSLHVPAGQIYGVIGASGAGKSTLIRCVNLLERPTEGSVLVDGQELTTLSESELTKARRQIGMIFQHFNLLSSRTVFGNVALPLELDNTPKDEVKRRVTELLSLVGLGDKHDSYPSNLSGGQKQRVAIARALASNPKVLLCDEATSALDPATTRSILELLKDINRRLGLTILLITHEMDVVKRICDCVAVISNGELIEQDTVSEVFSHPKTPLAQKFIQSTLHLDIPEDYQERLQAEPFTDCVPMLRLEFTGQSVDAPLLSETARRFNVNNNIISAQMDYAGGVKFGIMLTEMHGTQQDTQAAIAWLQEHHVKVEVLGYV”: the “soluble on expression in E. coli” value is reported as “soluble”.

Take “MGSDKIHHHHHHMELPCSLLCFVETLAVLRRSKSLSNEIIATGSRLVAGPSGAQDRAMTATRYDKNAKNVLGQELVPCSLDPVTGFYRNGCCETGPHDLGLHTVCAVMTRDFLAFSKAQGNDLSTPRPDLAFPGLKPGDRWCLCAGRWKEALDAGMAPQVVLEATHEEMLAVVPLGVLKDHAAA”: the “soluble on expression in E. coli” value was “not soluble”.

For “MTQTFADQKRKTVETAEFTEDGRYKRKVRSFVLRTGRLSEFQRNMMNDNWGTLGLDYQTEPFDFAKIYGNDNPVVLEIGFGMGKSLVDMAFANPDKNYLGIEVHTPGVGACIAYAVEKGVTNLRVICHDATEILRDSIADGALGGLQLFFPDPWHKAKHHKRRIVQPHFVTQVIQKLGENGFIHMATDWENYAEQMLEVLSANTDLVNTSKNGDYIPRPDFRPLTKFEARGYKLGHGVWDLYFVKK”, the “soluble on expression in E. coli” value is “not soluble”.

Turning to “MSFVSVLSIAHKKGRGWPLLDMEIRELCCMLHKVFYLVRCTGIGFDFFRKFVLILFLAYTFKTIDSMASERKLKKQITGAISEVFTDAFLLKLFVKEEKNAEVETILNRILQLQDTTIAKIRCNDGKHNPALVKKYYRRLVDDFKEELSEIVKSISACASDN”, the “soluble on expression in E. coli” value was “not soluble”.

For “MVNFVAKDIYTKDSIQRGGQDVIIEKHEIQIDQITSGKVNIFTFYRNRKQIDDHFLRLQEPSLTANYFFHFHFDAESLHLLQKEFPSVYPYDGSETIHDWTEKMKAELQHQIQTGKWNKRVRIGNRILDVVFTWCDEDIVE”, the “soluble on expression in E. coli” value is recorded as “not soluble”.

In the case of “MGSDKIHHHHHHMRLPDAGFRRYIVVAGRRNVGKSSFMNALVGQNVSIVSEYAGTTTDPVYKSMELYPVGPVTLVDTPGLDDVGELGRLRVEKARRVFYRADCGILVTDSEPTPYEDDVVNLFKEMEIPFVVVVNKIDVLGEKAEELKGLYESRYEAKVLLVSALQKKGFDDIGKTISEILPGDEEIPYLGDLIDGGDLVILVVPIDLGAPKGRLIMPQVHAIREALDREAIALVVKERELRYVMENIGMKPKLVITDSQVVMKVASDVPEDVELTTFSIVESRYRGDLAYFVESVRKIEELEDGDTVVIMEGCTHRPLTEDIGRVKIPRWLVNHTGAQLNFKVIAGKDFPDLEEIEGAKLIIHCGGCVLNRAAMMRRVRMAKRLGIPMTNYGVTISYLHGVLDRAIRPFREEVKV”, the “soluble on expression in E. coli” value is “not soluble”.

Values taken from the DeepSol protein solubility set.
